Reference: patent publication US20050182242A1, “Global analysis of protein activities using proteome chips” (priority 2001, published 2005)

B1: Hxk1p: yeast hexokinase, GST fusion (protein, UniProt P04806 1-485, looked up)
Hexokinase-1: MVHLGPKKPQARKGSMADVPKELMDEIHQLEDMFTVDSETLRKVVKHFIDELNKGLTKKGGNIPMIPGWVMEFPTGKESGNYLAIDLGGTNLRVVLVKLSGNHTFDTTQSKYKLPHDMRTTKHQEELWSFIADSLKDFMVEQELLNTKDTLPLGFTFSYPASQNKINEGILQRWTKGFDIPNVEGHDVVPLLQNEISKRELPIEIVALINDTVGTLIASYYTDPETKMGVIFGTGVNGAFYDVVSDIEKLEGKLADDIPSNSPMAINCEYGSFDNEHLVLPRTKYDVAVDEQSPRPGQQAFEKMTSGYYLGELLRLVLLELNEKGLMLKDQDLSKLKQPYIMDTSYPARIEDDPFENLEDTDDIFQKDFGVKTTLPERKLIRRLCELIGTRAARLAVCGIAAICQKRGYKTGHIAADGSVYNKYPGFKEAAAKGLRDIYGWTGDASKDPITIVPAEDGSGAGAAVIAALSEKRIAEGKSLGIIGA
modifications: GST tag
notes: yeast hexokinase, GST fusion
B2: Eno2p: yeast enolase, GST fusion (protein, UniProt P00925 2-437, looked up)
Enolase 2: AVSKVYARSVYDSRGNPTVEVELTTEKGVFRSIVPSGASTGVHEALEMRDEDKSKWMGKGVMNAVNNVNNVIAAAFVKANLDVKDQKAVDDFLLSLDGTANKSKLGANAILGVSMAAARAAAAEKNVPLYQHLADLSKSKTSPYVLPVPFLNVLNGGSHAGGALALQEFMIAPTGAKTFAEAMRIGSEVYHNLKSLTKKRYGASAGNVGDEGGVAPNIQTAEEALDLIVDAIKAAGHDGKVKIGLDCASSEFFKDGKYDLDFKNPESDKSKWLTGVELADMYHSLMKRYPIVSIEDPFAEDDWEAWSHFFKTAGIQIVADDLTVTNPARIATAIEKKAADALLLKVNQIGTLSESIKAAQDSFAANWGVMVSHRSGETEDTFIADLVVGLRTGQIKTGAPARSERLAKLNQLLRIEEELGDKAVYAGENFHHGDKL
modifications: GST tag
notes: yeast enolase, GST fusion
B3: Pyc1p: pyruvate carboxylase 1 homolog with conserved biotin-attachment region (protein, UniProt P11154 1-1178, looked up)
Pyruvate carboxylase 1: MSQRKFAGLRDNFNLLGEKNKILVANRGEIPIRIFRTAHELSMQTVAIYSHEDRLSTHKQKADEAYVIGEVGQYTPVGAYLAIDEIISIAQKHQVDFIHPGYGFLSENSEFADKVVKAGITWIGPPAEVIDSVGDKVSARNLAAKANVPTVPGTPGPIETVEEALDFVNEYGYPVIIKAAFGGGGRGMRVVREGDDVADAFQRATSEARTAFGNGTCFVERFLDKPKHIEVQLLADNHGNVVHLFERDCSVQRRHQKVVEVAPAKTLPREVRDAILTDAVKLAKECGYRNAGTAEFLVDNQNRHYFIEINPRIQVEHTITEEITGIDIVAAQIQIAAGASLPQLGLFQDKITTRGFAIQCRITTEDPAKNFQPDTGRIEVYRSAGGNGVRLDGGNAYAGTIISPHYDSMLVKCSCSGSTYEIVRRKMIRALIEFRIRGVKTNIPFLLTLLTNPVFIEGTYWTTFIDDTPQLFQMVSSQNRAQKLLHYLADVAVNGSSIKGQIGLPKLKSNPSVPHLHDAQGNVINVTKSAPPSGWRQVLLEKGPAEFARQVRQFNGTLLMDTTWRDAHQSLLATRVRTHDLATIAPTTAHALAGRFALECWGGATFDVAMRFLHEDPWERLRKLRSLVPNIPFQMLLRGANGVAYSSLPDNAIDHFVKQAKDNGVDIFRVFDALNDLEQLKVGVDAVKKAGGVVEATVCFSGDMLQPGKKYNLDYYLEIAEKIVQMGTHILGIKDMAGTMKPAAAKLLIGSLRAKYPDLPIHVHTHDSAGTAVASMTACALAGADVVDVAINSMSGLTSQPSINALLASLEGNIDTGINVEHVRELDAYWAEMRLLYSCFEADLKGPDPEVYQHEIPGGQLTNLLFQAQQLGLGEQWAETKRAYREANYLLGDIVKVTPTSKVVGDLAQFMVSNKLTSDDVRRLANSLDFPDSVMDFFEGLIGQPYGGFPEPFRSDVLRNKRRKLTCRPGLELEPFDLEKIREDLQNRFGDVDECDVASYNMYPRVYEDFQKMRETYGDLSVLPTRSFLSPLETDEEIEVVIEQGKTLIIKLQAVGDLNKKTGEREVYFDLNGEMRKIRVADRSQKVETVTKSKADMHDPLHIGAPMAGVIVEVKVHKGSLIKKGQPVAVLSAMKMEMIISSPSDGQVKEVFVSDGENVDSSDLLVLLEDQVPVETKA

Tests used:
PI(4,5)P2 liposomes = assay: Nitrocellulose membrane assay: adhered PI(4,5)P2 liposomes probed with GST fusion proteins; format: binding; settings: dilution series, anti-GST antibodies, ECL
Text: A. PI(4,5)P2 liposomes were first adhered to a nitrocellulose membrane, which was blocked by BSA; a dilution series of Rim15p, Eno2p, and Hxk1p, and a GST control were used to probe the membrane. The bound proteins were detected using the anti-GST antibodies and an enhanced chemiluminescence (“ECL”) kit.
Therefore, six proteins, i.e., Rim15p, Eno2p, Hxk1p, Sps1p, Yg1059wp, and Gcn2p, were further tested for phosphoinositol binding using two types of standard assays (Williamson, 2000, Nat. Struct Biol. 7(10):834-7). For Rim15p, Eno2p, and Hxk1p, PI(4,5)P2 liposomes were first adhered to a nitrocellulose membrane, which was then blocked by BSA; different amounts of the GST fusion proteins and a GST control were used to probe the membrane, and bound proteins were detected using anti-GST antibodies. […] We also carried out the reverse assay for four GST fusion proteins, Rim15p, Sps1p, Yg1059wp, and Gcn2p (Guerra et al., 2000, Biosci. Rep. 20: 41). Different amounts of these purified proteins were spotted onto nitrocellulose filters and probed with the six different liposomes (FIG. 5B). The bound liposomes were detected using a horseradish peroxidase (“HRP”)-conjugated streptavidin.

[1] = system: phospholipids (phosphatidylinositols vs phosphatidylcholine); assay: Proteome chip lipid-binding screen, overall analysis of six liposomes (PI/PC specificity); settings: phospholipid liposome probes
Text: FIGS. 4A-4D. Analysis of the phosphatidylinositol-binding proteins. To determine the phosphatidylinositol (“PI”)-binding specificity of 150 positive proteins, their binding signals were normalized against the corresponding binding signals of phosphatidylcholine (“PC”). Based on the ratios (“PI/PC”), the proteins were grouped into four categories: (A) 30 strong and specific, (B) 43 strong and nonspecific, (C) 19 weak and specific, and (D) 58 weak and nonspecific phosphatidylinositol-binding proteins. The intensity represents the PI/PC signal ratio as shown by the scale in the figure. The column, labeled “10^n” to the right of the PI/PC binding ratios indicates the maximum binding signal intensity (open boxes) and its confidence interval (solid horizontal lines); the numbers indicate the log of the values. Boxes in the three columns to the right of the confidence interval column indicate membrane-associated proteins (“Membrane”), kinases (“Kinase”), and uncharacterized ORFs (“Unknown”), respectively.
To identify PI-binding proteins in yeast, liposomes were used as probes because the liposome provides the most relevant physiological condition to assay the interactors. Six types of liposomes were used. Each contains phosphatidylcholine (“PC”) with 1% (w/w) N-(biotinoyl)-1,2-dihexadecanoyl-sn-glycero-3-phosphoethanolamine, triethylammonium salt (biotin DHPE). The biotinylated lipid serves as a label that can be detected by Cy3-streptavidin (21). In addition to PC, the five other liposomes contain either 5% (w/w) PI(3)P, PI(4)P, PI(3,4)P2, PI(4,5)P2, or PI(3,4,5)P3 (FIG. 3A).
The protein-liposome interaction was assayed as follows. Appropriate amounts of each lipid in chloroform were mixed and dried under nitrogen. The lipid mixture was resuspended in TBS buffer by vortexing. The liposomes were created by sonication. Blocked proteome chips were washed three to five times in PBS buffer, and the extra liquid on the glass surface was removed by tapping the slides vertically on a KIMWIPE™. 200 μl of liposome solution was added to the proteome chip and immediately covered by a hydrophobic plastic cover slip (GRACE BIO-LAB™, USA). After trapped air bubbles were removed, the chip was incubated in a humidity chamber at RT for one hour. To remove the cover slip, the chip was immersed into large volume of PBS buffer (50 ml), so that the slip would float away. The chip was then moved to a second PBS bath (>50 ml) and washed 3×5 min with shaking at RT. After removing extra liquid on the surface of the chip, about 100 μl of Cy3 or Cy5 conjugated streptavidin (PIERCE™, USA; 1:2000 to 1:4000 dilution) was added to the surface and covered by a hydrophobic plastic cover slip (GRACE BIO-LABS™, USA). The chip was incubated for greater than 30 min in the dark at RT. The chip was then washed as described above. To completely remove the liquid on the chip, the chip was spun to dryness at 1500-2000 rpm for 5-10 min at RT.
An algorithm was devised to assist in the identification of positive signals (42). Fifty-two (35%) of the interactors (i.e., lipid-binding proteins) correspond to uncharacterized proteins thus ascribing the first biochemical activities to those proteins.
The interactors (i.e., phospholipid-binding proteins) were grouped in several ways (42). First, the interactors were sorted according to whether they bound lipids strongly or weakly, based on the phospholipid-binding signal relative to the amount of GST (FIG. 4). Slightly more (72%) of the strong lipid binding proteins (FIGS. 4A and 4B) were characterized relative to the weakly binding proteins (54%) (FIGS. 4C and 4D). Many of the strong lipid-binding proteins are membrane-associated, or are predicted to be associated with membranes, whereas fewer of the weaker binding proteins appear to be associated with membranes (FIG. 4, “Membrane” column). […] Moreover, thirteen of the seventeen protein kinases bind very strongly to the phospholipids. […]

Cy3-labeled streptavidin = target: T1, Cy3-labeled streptavidin (Streptomyces avidinii, UniProt P22629); assay: Yeast proteome chip probed with Cy3-labeled streptavidin alone; format: binding
T1 construct: purchased Jackson IR, USA
T1 sequence (P22629 25-183): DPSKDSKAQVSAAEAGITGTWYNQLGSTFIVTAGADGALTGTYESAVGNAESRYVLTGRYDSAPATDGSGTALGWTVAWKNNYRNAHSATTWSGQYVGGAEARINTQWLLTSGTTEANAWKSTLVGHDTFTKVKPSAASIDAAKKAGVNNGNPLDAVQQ
Text: To test for protein-protein interactions, the yeast proteome was probed with calmodulin (11). Calmodulin is a highly conserved calcium-binding protein involved in many calcium-regulated cellular processes and has many known physical partners (Hook et al., 2001, Annu. Rev. Pharmacol. Toxicol. 41:471). The calmodulin probe was biotinylated, and bound probe was detected using Cy3-labeled streptavidin. As a control, the yeast proteome was probed with Cy3-labeled streptavidin alone.
In addition to the calmodulin-binding targets, one protein, Pyc1p, which bound Cy3 -labeled streptavidin, was also identified. Pyc1p encodes a pyruvate carboxylase 1 homolog that contains a highly conserved biotin-attachment region (Menendez et al., 1998, Yeast 14:647). Thus, as predicted by its sequence, Pyc1p is biotinylated in vivo; and was identified in all experiments using streptavidin detection methods. Thus, proteome microarrays can be used to identify posttranslational modifications of proteins.

Molecule | binding to PI(4,5)P2 liposomes on membrane (PI(4,5)P2 liposomes) | identified as lipid-binding interactor [1] | binding of Cy3-labeled streptavidin (Cy3-labeled streptavidin)
B1 | tightly bound PI(4,5)P2 | identified | –
B2 | tightly bound PI(4,5)P2 | identified | –
B3 | – | – | bound
